Tests used:
[1] = molecular target: LuS-N71-SpyTag (Aquifex aeolicus); test: SDS-PAGE of the covalent conjugate, band intensities; conjugated product or conjugation mixture on SDS-PAGE with DTT; band intensity and molecular weight used to work out the molar share of conjugated nanoparticle subunit
[2] = molecular target: ferritin-N96-SpyTag (Helicobacter pylori); test: as above

Q: Which percent of nanoparticle subunit conjugated [1] does the source give for RSV F-SpyCatcher here?
A: 67%

Q: What about the percent of nanoparticle subunit conjugated [2] of the same substance?
A: 85%

Q: How did the percent of nanoparticle subunit conjugated [1] turn out when PIV3 F-SpyCatcher was run?
A: 68%

Source: paper PMC7584627
